Measurements as given in US10005846 (LIFEARC, dated 2018).

T1: TG13
T1 construct: also called Factor XIIIa
T1 chain: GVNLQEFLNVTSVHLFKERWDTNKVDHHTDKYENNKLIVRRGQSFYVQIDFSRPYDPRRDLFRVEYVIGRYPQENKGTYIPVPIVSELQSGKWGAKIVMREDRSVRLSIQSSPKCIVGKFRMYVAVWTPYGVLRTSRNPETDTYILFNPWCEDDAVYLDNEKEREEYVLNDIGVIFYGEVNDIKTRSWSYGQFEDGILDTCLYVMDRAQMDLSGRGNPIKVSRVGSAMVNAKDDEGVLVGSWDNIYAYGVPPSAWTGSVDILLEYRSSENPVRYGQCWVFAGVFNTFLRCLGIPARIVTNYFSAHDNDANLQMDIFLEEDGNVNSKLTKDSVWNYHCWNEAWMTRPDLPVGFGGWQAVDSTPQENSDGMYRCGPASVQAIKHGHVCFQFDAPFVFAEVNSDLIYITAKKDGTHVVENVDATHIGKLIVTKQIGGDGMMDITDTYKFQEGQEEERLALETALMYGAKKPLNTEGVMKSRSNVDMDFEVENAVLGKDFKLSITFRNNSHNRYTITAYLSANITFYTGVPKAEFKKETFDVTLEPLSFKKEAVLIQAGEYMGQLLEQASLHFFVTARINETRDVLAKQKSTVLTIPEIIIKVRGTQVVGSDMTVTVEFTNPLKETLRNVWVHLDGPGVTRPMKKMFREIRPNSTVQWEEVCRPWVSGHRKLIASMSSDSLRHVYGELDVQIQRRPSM

T2: TG1 (human, UniProt P22735)
T2 construct: recombinant, Zedira; also called recombinant human TG1; Keratinocyte Transglutaminase
T2 sequence (enzyme, looked up): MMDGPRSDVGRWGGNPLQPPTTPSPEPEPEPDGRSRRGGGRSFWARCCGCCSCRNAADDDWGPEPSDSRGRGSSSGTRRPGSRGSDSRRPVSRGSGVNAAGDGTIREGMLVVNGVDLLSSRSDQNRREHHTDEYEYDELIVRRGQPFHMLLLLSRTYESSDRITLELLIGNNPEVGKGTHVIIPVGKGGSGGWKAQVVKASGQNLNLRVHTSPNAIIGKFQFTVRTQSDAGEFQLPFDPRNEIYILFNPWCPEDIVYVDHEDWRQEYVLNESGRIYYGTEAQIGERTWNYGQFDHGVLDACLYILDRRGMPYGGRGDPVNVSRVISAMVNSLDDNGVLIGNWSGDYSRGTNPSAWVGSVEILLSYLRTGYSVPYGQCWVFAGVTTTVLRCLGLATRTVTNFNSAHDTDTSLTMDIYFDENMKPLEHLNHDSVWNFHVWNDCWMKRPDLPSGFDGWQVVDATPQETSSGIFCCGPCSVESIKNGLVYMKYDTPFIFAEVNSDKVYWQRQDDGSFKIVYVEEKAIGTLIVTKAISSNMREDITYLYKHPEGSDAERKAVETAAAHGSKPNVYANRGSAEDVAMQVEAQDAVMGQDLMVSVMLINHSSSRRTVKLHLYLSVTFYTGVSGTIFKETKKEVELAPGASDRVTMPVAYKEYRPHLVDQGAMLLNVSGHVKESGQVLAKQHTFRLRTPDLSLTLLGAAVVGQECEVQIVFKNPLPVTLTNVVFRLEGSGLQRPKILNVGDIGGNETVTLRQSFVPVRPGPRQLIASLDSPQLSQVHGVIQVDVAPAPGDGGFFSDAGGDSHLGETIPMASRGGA

T3: TG3 (human, UniProt Q08188)
T3 construct: recombinant, Zedira; also called recombinant human TG3; Epidermal Transglutaminase
T3 sequence (enzyme, looked up): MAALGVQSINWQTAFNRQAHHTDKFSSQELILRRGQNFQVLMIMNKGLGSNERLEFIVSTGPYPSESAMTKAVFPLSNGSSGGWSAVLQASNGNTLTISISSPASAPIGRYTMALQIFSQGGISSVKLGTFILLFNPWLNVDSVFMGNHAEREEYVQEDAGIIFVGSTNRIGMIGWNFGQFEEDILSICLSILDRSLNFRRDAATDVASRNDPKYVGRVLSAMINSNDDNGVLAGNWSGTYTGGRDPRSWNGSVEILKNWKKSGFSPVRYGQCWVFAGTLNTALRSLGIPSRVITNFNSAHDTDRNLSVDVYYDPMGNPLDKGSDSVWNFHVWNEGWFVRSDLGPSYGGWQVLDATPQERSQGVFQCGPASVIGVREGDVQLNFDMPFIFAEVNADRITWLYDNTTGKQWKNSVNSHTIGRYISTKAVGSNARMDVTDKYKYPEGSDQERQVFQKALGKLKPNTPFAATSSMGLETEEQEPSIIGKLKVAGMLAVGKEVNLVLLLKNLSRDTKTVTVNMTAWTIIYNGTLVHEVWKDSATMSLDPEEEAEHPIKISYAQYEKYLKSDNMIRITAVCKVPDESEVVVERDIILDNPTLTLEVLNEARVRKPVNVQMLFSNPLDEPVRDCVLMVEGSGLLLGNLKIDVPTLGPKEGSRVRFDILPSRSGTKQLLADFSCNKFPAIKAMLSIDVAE


Experiments:
Assay in all cases: ELISA, hybridoma conditioned medium, plates coated with recombinant TG (100 ng/well) [panel A]
TG13 = biological target: T1, TG13
Procedure: (§1) Conditioned medium or purified IgG were tested for reactivity to transglutaminase family members. The ability of each to bind to each transglutaminase (TG1, TG2, TG3, TG5, TG7 and Factor XIIIa; all Zedira) was determined using a plate binding assay. Microtiter plates (Costar, Cambridge, UK) were coated with recombinant TG (Zedira, Darmstadt, Germany) in 50 μl of 0.1 M bicarbonate/carbonate buffer (pH 9.6) overnight at 4° C. Plates were blocked for 2 h at 37° C. with 200 μl PBS containing 3% w/v BSA. Plates were washed three times with PBS containing 0.05% Tween 20 (washing buffer) and 100 μl of diluted conditioned medium (dilution 1:5 to 1:20) or purified anti-TG2 catalytic core mAbs was added. Plates were incubated for a further 1 h at room temperature. The washing step was repeated and anti-mouse gamma chain-horseradish peroxidase (1:5000) in PBS containing 0.05% Tween 20 (v:v) and 1% BSA (w:v) (Sigma, Poole UK) was added for 1 h. […] The reaction was stopped by adding 25 μl of 0.1 M H_2SO_4 and the absorbance at 450 nm was determined.

TG1 = biological target: T2, TG1
Procedure: as §1

TG3 = biological target: T3, TG3
Procedure: as §1

Binder | binding result (TG13) | binding result (TG1) | binding result (TG3)
AB1 murine monoclonal antibody (antibody, V domains shown, Mouse hybridoma IgG; heavy chain amplified with constant region primer MHCG1, kappa light chain; also called mAB003) VH: EVQLVESGGGLVKPGGSLKLSCAASGFTLSSSAMSWVRQTPDRRLEWVATISVGGGKTYYPDSVKGRFTISRDNAKNTLYLQMNSLRSEDTAMYYCAKLISLYWGQGTTLTVSS VL: DIKMTQSPSSMYASLGERVTITCKASQDINSYLTWFQQKPGKSPKTLIYRTNRLFDGVPSRFSGSGSGQDFFLTISSLEYEDMGIYYCLQYDDFPYTFGGGTKLEIK | no binding | no binding | no binding
DC1 murine monoclonal antibody (antibody, V domains shown, Mouse hybridoma IgG; heavy chain amplified with primer MHCG1, kappa light chain; also called mDC001) VH: EVQLVESGGGLVKPGGSLKLSCAASGFTLSTHAMSWVRQTPEKRLEWVATISSGGRSTYYPDSVKGRFTISRDNVKNTLYLQLSSLRSEDTAVYFCARLISTYWGQGTTLTVSS VL: DITMTQSPSSIYASLGERVTITCKASQDINSYLTWFQQKPGKSPKILIYLVNRLVDGVPSRFSGSGSGQDYALTISSLEYEDMGIYYCLQYDDFPYTFGGGTKLEIK |  | no binding | 
BB7 murine monoclonal antibody (antibody, V domains shown, Mouse hybridoma IgG; heavy chain amplified with primer MHCG1, kappa light chain; also called mBB001) VH: AVQLVESGGGLVKPGGSLKLSCAASGIIFSSSAMSWVRQTPEKRLEWVATISSGGRSTYYPDSVKGRFTVSRDSAKNTLYLQMDSLRSEDTAIYYCAKLISPYWGQGTTLTVSS VL: AIKMTQSPSSMYASLGERVIITCKASQDINSYLTWFQQKPGKSPKTLIYLTNRLMDGVPSRFSGSGSGQEFLLTISGLEHEDMGIYYCLQYVDFPYTFGGGTKLEIK | no binding | no binding | no binding
AG9 murine monoclonal antibody (antibody, V domains shown, Mouse hybridoma IgG; heavy chain amplified with primer MHCG1, kappa light chain) VH: EVQLQQSGPELVKPGASVKMSCRASGYTFTTYVIHWVKQKPGQGLEWIGYINPYNDGARYNEKFKGKATLTSDKSSTTAYMELSSLTSEDSAVYYCARLSSDYWGQGTTLTVSS VL: DVLMTQNPLSLPVSLGDQASISCRSSRSIEHSNGNTYLEWYLQKPGQSPKFLIYKVSNRFSGVPDRFSGSGSGTDFTLRISSVEAEDLGVYYCFQGSHVPFTFGGGTKLEIK | no binding | no binding | no binding
EH6 murine monoclonal antibody (antibody, V domains shown, Mouse hybridoma IgG; heavy chain amplified with primer MHCG2B, kappa light chain) VH: EVQLQQSGPELVKPGASVKMSCKASGYTFTSYVMHWVKQKPGQGLEWIGFINPYNDGTKYNEKFKGKATLTSDKASTTAYMELSSLTSEDSAVYYCARFSSGYWGQGTTLTVSS VL: DVLMTQTPLSLPVSLGDQASISCRSSQSIVHSNGNTYLEWYLQKPGQSPKLLIYKVSNRFSGVPDRFSGSGSGTDFTLKISRVGAEDLGVYYCLQVSHVPFTFGSGTKLEIK | no binding | no binding | no binding
DH2 murine monoclonal antibody (antibody, V domains shown, Mouse hybridoma IgG; heavy chain amplified with primer MHCG2B, kappa light chain; also called mDH001) VH: not shown VL: QIVLTQSPAIMSASPGEKVTMTCSASSSVSYMYWYQQKPGSSPRLLIYDTSNLASGVPVRFSGSGSGTSYSLTISRMEAEDAATFYCQQWSSSPLTFGAGTKLELK | no binding | no binding | no binding

Second part, the binder after the results:

binding result (TG13) | binding result (TG1) | binding result (TG3) | Binder
no binding | no binding | no binding | AH3 murine monoclonal antibody (antibody, V domains shown, Mouse hybridoma IgG; heavy chain amplified with primer MHCG2B, kappa light chain) VH: EVQLQQSGPELVKPGASVKMSCRASGYTFTTYVIHWVKQKPGQGLEWIGYINPYNDGARYNEKFKGKATLTSDKSSTTAYMELSSLTSEDSAVYYCARLSSDYWGQGTTLTVSS VL: DVLMTQNPLSLPVSLGDQASISCRSSRSIEHSNGNTYLEWYLQKPGQSPKFLIYKVSNRFSGVPDRFSGSGSGTDFTLRISSVEAEDLGVYYCFQGSHVPFTFGGGTKLEIK
no binding | no binding | no binding | JE12 murine monoclonal antibody (antibody, V domains shown, Mouse hybridoma IgG; heavy chain amplified with primer MHCG1, kappa light chain) VH: EVQLQQSGPELVKPGASVKMSCKASGYRFTSYVMHWVKQKSGQGLEWIGYINPYNDGAKYNEKFKGKATLTSDKSSSTAYMELSSLTSEDSAVYYCARLSSDYWGQGTTLTVSS VL: DVLMTQNPLSLPVSLGDQASISCRSSQSIEHINGNTYLEWYLQKPGQSPKFLIYKVSNRFSGVPDRFSGSGSGTDFTLRISRVEAEDLGIYYCFQGSHVPFTFGGGTKLEIK
no binding | no binding | no binding | DD9 murine monoclonal antibody (antibody, V domains shown, Mouse hybridoma IgG; heavy chain amplified with primer MHCG2A, kappa light chain; also called mDD9001) VH: not shown VL: QIVLTQSPAIMSASPGEKVTMTCSASSSVDYMYWYQQKPGSSPRLLIYDTSNLASGVPVRFSGSGSGTSYSLTISRMGAEDAATYYCQQWNSSPLTFGAGTKLELK
